Laboratory results from US20160272683A1 (Novo Nordisk, published 2016).
Numbered stars: 1 amine (or outer) side, 2 acyl side, 3 side chain; on linkers, the order of the positions; unused ones are H or OH. * marks the point of attachment. C20 diacid = O=C(O)CCCCCCCCCCCCCCCCCCC(=O)*; C18 diacid = O=C(O)CCCCCCCCCCCCCCCCC(=O)*; γGlu = O=C(O)[C@H](CCC(=O)[*:2])N[*:1]

T1: human amylin 3(a) receptor (human calcitonin receptor co-expressed with RAMP-3) on BHK570/CRE-luc cells (human, UniProt P30988 25-474; O60896 24-148)
T1 sequence (looked up) 1: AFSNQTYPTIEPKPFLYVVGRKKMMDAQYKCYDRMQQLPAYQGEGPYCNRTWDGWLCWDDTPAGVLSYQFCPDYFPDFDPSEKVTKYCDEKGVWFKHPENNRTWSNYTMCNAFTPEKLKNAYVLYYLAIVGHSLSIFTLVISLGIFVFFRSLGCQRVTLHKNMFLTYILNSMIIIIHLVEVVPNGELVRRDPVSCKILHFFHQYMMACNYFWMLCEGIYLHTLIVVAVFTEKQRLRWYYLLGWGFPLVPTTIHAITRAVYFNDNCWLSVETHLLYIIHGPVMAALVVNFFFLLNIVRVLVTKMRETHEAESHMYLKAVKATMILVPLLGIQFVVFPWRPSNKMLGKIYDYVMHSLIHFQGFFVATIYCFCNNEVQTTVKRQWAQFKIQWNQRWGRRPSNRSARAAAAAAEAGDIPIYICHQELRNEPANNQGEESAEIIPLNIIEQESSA
T1 sequence (looked up) 2: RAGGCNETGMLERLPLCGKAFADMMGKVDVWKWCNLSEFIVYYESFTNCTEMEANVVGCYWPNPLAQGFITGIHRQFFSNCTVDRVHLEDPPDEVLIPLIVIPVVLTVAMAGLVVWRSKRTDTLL

T2: human calcitonin receptor on BHK570/CRE-luc cells (human, UniProt P30988 25-474)
T2 sequence (looked up): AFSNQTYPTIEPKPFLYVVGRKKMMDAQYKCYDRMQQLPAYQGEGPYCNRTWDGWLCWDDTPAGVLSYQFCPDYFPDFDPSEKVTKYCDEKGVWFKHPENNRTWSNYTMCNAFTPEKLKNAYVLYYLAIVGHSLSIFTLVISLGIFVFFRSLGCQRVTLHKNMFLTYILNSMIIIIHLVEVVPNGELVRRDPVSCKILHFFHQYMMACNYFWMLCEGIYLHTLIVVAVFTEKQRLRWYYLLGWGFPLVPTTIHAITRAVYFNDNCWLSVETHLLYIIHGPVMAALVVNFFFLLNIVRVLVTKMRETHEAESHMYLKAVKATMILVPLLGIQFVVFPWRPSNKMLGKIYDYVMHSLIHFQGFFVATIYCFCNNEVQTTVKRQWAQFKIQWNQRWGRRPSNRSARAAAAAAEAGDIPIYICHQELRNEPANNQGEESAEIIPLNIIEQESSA


Experiments:
[1] = molecular target: T1, human amylin 3(a) receptor (human …); test: cell-based or functional assay
[2] = molecular target: T2, human calcitonin receptor on …; test: cell-based or functional assay

| hAmylin-R funct. EC50 (pM), tested with HSA [1] [pM] | hCTR funct. EC50 (pM), tested with HSA [2] [pM] | Binder |
| --- | --- | --- |
| 66 | 35 | {C20 diacid-γGlu}-ASGLSTAVLGRLSAELHELATYPRTETGSGTP-NH2 (SMILES CC(C)C[C@H](NC(=O)CNC(=O)[C@H](CO)NC(=O)[C@H](C)NC(=O)CC[C@H](NC(=O)CCCCCCCCCCCCCCCCCCC(=O)O)C(=O)O)C(=O)N[C@@H](CO)C(=O)N[C@H](C(=O)N[C@@H](C)C(=O)N[C@H](C(=O)N[C@@H](CC(C)C)C(=O)NCC(=O)N[C@@H](CCCNC(=N)N)C(=O)N[C@@H](CC(C)C)C(=O)N[C@@H](CO)C(=O)N[C@@H](C)C(=O)N[C@@H](CCC(=O)O)C(=O)N[C@@H](CC(C)C)C(=O)N[C@@H](Cc1c[nH]cn1)C(=O)N[C@@H](CCC(=O)O)C(=O)N[C@@H](CC(C)C)C(=O)N[C@@H](C)C(=O)N[C@H](C(=O)N[C@@H](Cc1ccc(O)cc1)C(=O)N1CCC[C@H]1C(=O)N[C@@H](CCCNC(=N)N)C(=O)N[C@H](C(=O)N[C@@H](CCC(=O)O)C(=O)N[C@H](C(=O)NCC(=O)N[C@@H](CO)C(=O)NCC(=O)N[C@H](C(=O)N1CCC[C@H]1C(N)=O)[C@@H](C)O)[C@@H](C)O)[C@@H](C)O)[C@@H](C)O)C(C)C)[C@@H](C)O) [[N-terminal(C20 diacid-gGlu), des1, 4G, 9V, 23Y, 30S, 31G, 32T]mimylin] |
| 92 | 40 | {C20 diacid-γGlu}-ASELSTATLGRLSAELHELSTYPRTETGSGSY-NH2 (SMILES CC(C)C[C@H](NC(=O)[C@H](CCCNC(=N)N)NC(=O)CNC(=O)[C@H](CC(C)C)NC(=O)[C@@H](NC(=O)[C@H](C)NC(=O)[C@@H](NC(=O)[C@H](CO)NC(=O)[C@H](CC(C)C)NC(=O)[C@H](CCC(=O)O)NC(=O)[C@H](CO)NC(=O)[C@H](C)NC(=O)CC[C@H](NC(=O)CCCCCCCCCCCCCCCCCCC(=O)O)C(=O)O)[C@@H](C)O)[C@@H](C)O)C(=O)N[C@@H](CO)C(=O)N[C@@H](C)C(=O)N[C@@H](CCC(=O)O)C(=O)N[C@@H](CC(C)C)C(=O)N[C@@H](Cc1c[nH]cn1)C(=O)N[C@@H](CCC(=O)O)C(=O)N[C@@H](CC(C)C)C(=O)N[C@@H](CO)C(=O)N[C@H](C(=O)N[C@@H](Cc1ccc(O)cc1)C(=O)N1CCC[C@H]1C(=O)N[C@@H](CCCNC(=N)N)C(=O)N[C@H](C(=O)N[C@@H](CCC(=O)O)C(=O)N[C@H](C(=O)NCC(=O)N[C@@H](CO)C(=O)NCC(=O)N[C@@H](CO)C(=O)N[C@@H](Cc1ccc(O)cc1)C(N)=O)[C@@H](C)O)[C@@H](C)O)[C@@H](C)O) [[N-terminal(C20 diacid-gGlu), des1, 9T, 21S, 23Y, 30S, 31G, 33Y]mimylin] |
| 143 | 108 | {C20 diacid-γGlu}-ASELSTASLGRLSAELHELSTYPRTETGSGSY-NH2 (SMILES CC(C)C[C@H](NC(=O)[C@H](CO)NC(=O)[C@H](C)NC(=O)[C@@H](NC(=O)[C@H](CO)NC(=O)[C@H](CC(C)C)NC(=O)[C@H](CCC(=O)O)NC(=O)[C@H](CO)NC(=O)[C@H](C)NC(=O)CC[C@H](NC(=O)CCCCCCCCCCCCCCCCCCC(=O)O)C(=O)O)[C@@H](C)O)C(=O)NCC(=O)N[C@@H](CCCNC(=N)N)C(=O)N[C@@H](CC(C)C)C(=O)N[C@@H](CO)C(=O)N[C@@H](C)C(=O)N[C@@H](CCC(=O)O)C(=O)N[C@@H](CC(C)C)C(=O)N[C@@H](Cc1c[nH]cn1)C(=O)N[C@@H](CCC(=O)O)C(=O)N[C@@H](CC(C)C)C(=O)N[C@@H](CO)C(=O)N[C@H](C(=O)N[C@@H](Cc1ccc(O)cc1)C(=O)N1CCC[C@H]1C(=O)N[C@@H](CCCNC(=N)N)C(=O)N[C@H](C(=O)N[C@@H](CCC(=O)O)C(=O)N[C@H](C(=O)NCC(=O)N[C@@H](CO)C(=O)NCC(=O)N[C@@H](CO)C(=O)N[C@@H](Cc1ccc(O)cc1)C(N)=O)[C@@H](C)O)[C@@H](C)O)[C@@H](C)O) [[N-terminal(C20 diacid-gGlu), des1, 9S, 21S, 23Y, 30S, 31G, 33Y]mimylin] |
| 93 | 73 | {C20 diacid-γGlu}-ASELSTAALGKLSAELHELATYPKTETGSGSY-NH2 (SMILES CC(C)C[C@H](NC(=O)[C@H](C)NC(=O)[C@H](C)NC(=O)[C@@H](NC(=O)[C@H](CO)NC(=O)[C@H](CC(C)C)NC(=O)[C@H](CCC(=O)O)NC(=O)[C@H](CO)NC(=O)[C@H](C)NC(=O)CC[C@H](NC(=O)CCCCCCCCCCCCCCCCCCC(=O)O)C(=O)O)[C@@H](C)O)C(=O)NCC(=O)N[C@@H](CCCCN)C(=O)N[C@@H](CC(C)C)C(=O)N[C@@H](CO)C(=O)N[C@@H](C)C(=O)N[C@@H](CCC(=O)O)C(=O)N[C@@H](CC(C)C)C(=O)N[C@@H](Cc1c[nH]cn1)C(=O)N[C@@H](CCC(=O)O)C(=O)N[C@@H](CC(C)C)C(=O)N[C@@H](C)C(=O)N[C@H](C(=O)N[C@@H](Cc1ccc(O)cc1)C(=O)N1CCC[C@H]1C(=O)N[C@@H](CCCCN)C(=O)N[C@H](C(=O)N[C@@H](CCC(=O)O)C(=O)N[C@H](C(=O)NCC(=O)N[C@@H](CO)C(=O)NCC(=O)N[C@@H](CO)C(=O)N[C@@H](Cc1ccc(O)cc1)C(N)=O)[C@@H](C)O)[C@@H](C)O)[C@@H](C)O) [[N-terminal(C20 diacid-gGlu), des1, 12K, 23Y, 25K, 30S, 31G, 33Y]mimylin] |
| 106 | 28 | {C18 diacid-γGlu}-ASEVSTAVVGRLSAELHEVATLPRTETGSGSP-NH2 (SMILES CC(C)C[C@H](NC(=O)[C@H](CCCNC(=N)N)NC(=O)CNC(=O)[C@@H](NC(=O)[C@@H](NC(=O)[C@H](C)NC(=O)[C@@H](NC(=O)[C@H](CO)NC(=O)[C@@H](NC(=O)[C@H](CCC(=O)O)NC(=O)[C@H](CO)NC(=O)[C@H](C)NC(=O)CC[C@H](NC(=O)CCCCCCCCCCCCCCCCC(=O)O)C(=O)O)C(C)C)[C@@H](C)O)C(C)C)C(C)C)C(=O)N[C@@H](CO)C(=O)N[C@@H](C)C(=O)N[C@@H](CCC(=O)O)C(=O)N[C@@H](CC(C)C)C(=O)N[C@@H](Cc1c[nH]cn1)C(=O)N[C@@H](CCC(=O)O)C(=O)N[C@H](C(=O)N[C@@H](C)C(=O)N[C@H](C(=O)N[C@@H](CC(C)C)C(=O)N1CCC[C@H]1C(=O)N[C@@H](CCCNC(=N)N)C(=O)N[C@H](C(=O)N[C@@H](CCC(=O)O)C(=O)N[C@H](C(=O)NCC(=O)N[C@@H](CO)C(=O)NCC(=O)N[C@@H](CO)C(=O)N1CCC[C@H]1C(N)=O)[C@@H](C)O)[C@@H](C)O)[C@@H](C)O)C(C)C) [[N-terminal(C18 diacid-gGlu), des1, 5V, 9V, 10V, 20V, 30S, 31G]mimylin] |
| 128 | 92 | {C20 diacid-γGlu}-EASGLSTAALGRLSQELHELQTYPRTETGSGTY-NH2 (SMILES CC(C)C[C@H](NC(=O)CNC(=O)[C@H](CO)NC(=O)[C@H](C)NC(=O)[C@H](CCC(=O)O)NC(=O)CC[C@H](NC(=O)CCCCCCCCCCCCCCCCCCC(=O)O)C(=O)O)C(=O)N[C@@H](CO)C(=O)N[C@H](C(=O)N[C@@H](C)C(=O)N[C@@H](C)C(=O)N[C@@H](CC(C)C)C(=O)NCC(=O)N[C@@H](CCCNC(=N)N)C(=O)N[C@@H](CC(C)C)C(=O)N[C@@H](CO)C(=O)N[C@@H](CCC(N)=O)C(=O)N[C@@H](CCC(=O)O)C(=O)N[C@@H](CC(C)C)C(=O)N[C@@H](Cc1c[nH]cn1)C(=O)N[C@@H](CCC(=O)O)C(=O)N[C@@H](CC(C)C)C(=O)N[C@@H](CCC(N)=O)C(=O)N[C@H](C(=O)N[C@@H](Cc1ccc(O)cc1)C(=O)N1CCC[C@H]1C(=O)N[C@@H](CCCNC(=N)N)C(=O)N[C@H](C(=O)N[C@@H](CCC(=O)O)C(=O)N[C@H](C(=O)NCC(=O)N[C@@H](CO)C(=O)NCC(=O)N[C@H](C(=O)N[C@@H](Cc1ccc(O)cc1)C(N)=O)[C@@H](C)O)[C@@H](C)O)[C@@H](C)O)[C@@H](C)O)[C@@H](C)O) [[N-terminal(C20 diacid-gGlu), 4G, 15Q, 21Q, 23Y, 30S, 31G, 32T, 33Y]mimylin] |
| 122 | 53 | {C20 diacid-γGlu}-ASGLSTAVLGRLSAELHELATYPRTETGSGTY-NH2 (SMILES CC(C)C[C@H](NC(=O)CNC(=O)[C@H](CO)NC(=O)[C@H](C)NC(=O)CC[C@H](NC(=O)CCCCCCCCCCCCCCCCCCC(=O)O)C(=O)O)C(=O)N[C@@H](CO)C(=O)N[C@H](C(=O)N[C@@H](C)C(=O)N[C@H](C(=O)N[C@@H](CC(C)C)C(=O)NCC(=O)N[C@@H](CCCNC(=N)N)C(=O)N[C@@H](CC(C)C)C(=O)N[C@@H](CO)C(=O)N[C@@H](C)C(=O)N[C@@H](CCC(=O)O)C(=O)N[C@@H](CC(C)C)C(=O)N[C@@H](Cc1c[nH]cn1)C(=O)N[C@@H](CCC(=O)O)C(=O)N[C@@H](CC(C)C)C(=O)N[C@@H](C)C(=O)N[C@H](C(=O)N[C@@H](Cc1ccc(O)cc1)C(=O)N1CCC[C@H]1C(=O)N[C@@H](CCCNC(=N)N)C(=O)N[C@H](C(=O)N[C@@H](CCC(=O)O)C(=O)N[C@H](C(=O)NCC(=O)N[C@@H](CO)C(=O)NCC(=O)N[C@H](C(=O)N[C@@H](Cc1ccc(O)cc1)C(N)=O)[C@@H](C)O)[C@@H](C)O)[C@@H](C)O)[C@@H](C)O)C(C)C)[C@@H](C)O) [[N-terminal(C20 diacid-gGlu), des1, 4G, 9V, 23Y, 30S, 31G, 32T, 33Y]mimylin] |
